The supplement of paper PMC9112550, “Optimization of the antimicrobial peptide Bac7 by deep mutational scanning” (BMC Biology, 2022)

Tested on: Escherichia coli TOP10
Assay: shrunken log2 fold change of peptide-encoding DNA abundance (4.5 h post-induction vs induction); higher = less antimicrobial activity (less host growth inhibition)
Conditions: time post-induction: 4.5 h; library: site-saturation at positions 5, 18, 19, 20
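Also: peptides expressed intracellularly from a pBAD plasmid library in pooled LB shake-flask culture, induced with 0.3% L-arabinose, DNA abundance read by NGS, three biological replicates, DESeq2 with apeglm shrinkage.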

Row | Sequence | shrunken log2 fold change
1 | RRIRFRPPRLPRPRPRPIEHPRP | -0.215
2 | RRIRFRPPRLPRPRPRPIETPRP | -0.186
3 | RRIRFRPPRLPRPRPRPIGKPRP | -0.0112
4 | RRIRFRPPRLPRPRPRPIGSPRP | -0.241
5 | RRIRFRPPRLPRPRPRPIGVPRP | -0.0194
6 | RRIRFRPPRLPRPRPRPIGWPRP | -0.0252
7 | RRIRFRPPRLPRPRPRPIIFPRP | -0.621
8 | RRIRFRPPRLPRPRPRPIKCPRP | -0.229
9 | RRIRFRPPRLPRPRPRPIKGPRP | -0.248
10 | RRIRFRPPRLPRPRPRPILFPRP | -0.0517
11 | RRIRFRPPRLPRPRPRPIMFPRP | -0.0164
12 | RRIRFRPPRLPRPRPRPIMHPRP | -0.212
13 | RRIRFRPPRLPRPRPRPIMQPRP | -0.497
14 | RRIRFRPPRLPRPRPRPIMVPRP | -0.104
15 | RRIRFRPPRLPRPRPRPINCPRP | -0.257
16 | RRIRFRPPRLPRPRPRPINGPRP | -0.0164
17 | RRIRFRPPRLPRPRPRPIPGPRP | -0.00876
18 | RRIRFRPPRLPRPRPRPIPKPRP | 0.179
19 | RRIRFRPPRLPRPRPRPIPPPRP | 1.09
20 | RRIRFRPPRLPRPRPRPIRCPRP | 0.0461
21 | RRIRFRPPRLPRPRPRPIRHPRP | -0.355
22 | RRIRFRPPRLPRPRPRPIRKPRP | -0.0472
23 | RRIRFRPPRLPRPRPRPIRPPRP | -0.009
24 | RRIRFRPPRLPRPRPRPISAPRP | 0.0624
25 | RRIRFRPPRLPRPRPRPISDPRP | 0.0114

Row | Sequence | shrunken log2 fold change
26 | RRIRFRPPRLPRPRPRPISRPRP | 0.0107
27 | RRIRFRPPRLPRPRPRPIVGPRP | -0.0769
28 | RRIRFRPPRLPRPRPRPIYMPRP | -0.878
29 | RRIRFRPPRLPRPRPRPKAPPRP | 0.453
30 | RRIRFRPPRLPRPRPRPKAVPRP | -0.00146
31 | RRIRFRPPRLPRPRPRPKCNPRP | -0.238
32 | RRIRFRPPRLPRPRPRPKCPPRP | -0.128
33 | RRIRFRPPRLPRPRPRPKCTPRP | -0.243
34 | RRIRFRPPRLPRPRPRPKDAPRP | 0.141
35 | RRIRFRPPRLPRPRPRPKDTPRP | 0.0365
36 | RRIRFRPPRLPRPRPRPKDVPRP | -0.00433
37 | RRIRFRPPRLPRPRPRPKEDPRP | 0.122
38 | RRIRFRPPRLPRPRPRPKEEPRP | 0.0372
39 | RRIRFRPPRLPRPRPRPKETPRP | -0.0433
40 | RRIRFRPPRLPRPRPRPKGSPRP | 0.089
41 | RRIRFRPPRLPRPRPRPKHAPRP | 0.416
42 | RRIRFRPPRLPRPRPRPKIFPRP | -0.197
43 | RRIRFRPPRLPRPRPRPKIHPRP | -0.557
44 | RRIRFRPPRLPRPRPRPKIKPRP | -0.431
45 | RRIRFRPPRLPRPRPRPKITPRP | -0.448
46 | RRIRFRPPRLPRPRPRPKKVPRP | 0.102
47 | RRIRFRPPRLPRPRPRPKLEPRP | -0.0492
48 | RRIRFRPPRLPRPRPRPKLKPRP | 0.0386
49 | RRIRFRPPRLPRPRPRPKMSPRP | -0.369
50 | RRIRFRPPRLPRPRPRPKMWPRP | 0.348

Row | Sequence | shrunken log2 fold change
51 | RRIRFRPPRLPRPRPRPKPHPRP | 1.81
52 | RRIRFRPPRLPRPRPRPKSFPRP | -0.0388
53 | RRIRFRPPRLPRPRPRPKTAPRP | 0.295
54 | RRIRFRPPRLPRPRPRPKVFPRP | 0.0358
55 | RRIRFRPPRLPRPRPRPKWCPRP | -0.183
56 | RRIRFRPPRLPRPRPRPKWKPRP | -0.0366
57 | RRIRFRPPRLPRPRPRPKWSPRP | 0.321
58 | RRIRFRPPRLPRPRPRPLDLPRP | -0.366
59 | RRIRFRPPRLPRPRPRPLEGPRP | 0.0031
60 | RRIRFRPPRLPRPRPRPLEIPRP | -0.0193
61 | RRIRFRPPRLPRPRPRPLFIPRP | -0.652
62 | RRIRFRPPRLPRPRPRPLKKPRP | 0.251
63 | RRIRFRPPRLPRPRPRPLKSPRP | -0.307
64 | RRIRFRPPRLPRPRPRPLLSPRP | 0.0127
65 | RRIRFRPPRLPRPRPRPLLTPRP | -0.166
66 | RRIRFRPPRLPRPRPRPLMMPRP | -0.347
67 | RRIRFRPPRLPRPRPRPLNEPRP | -0.226
68 | RRIRFRPPRLPRPRPRPLNLPRP | -0.542
69 | RRIRFRPPRLPRPRPRPLNVPRP | -0.345
70 | RRIRFRPPRLPRPRPRPLPAPRP | 0.51
71 | RRIRFRPPRLPRPRPRPLPCPRP | -0.199
72 | RRIRFRPPRLPRPRPRPLPPPRP | 0.828
73 | RRIRFRPPRLPRPRPRPLQGPRP | 0.0475
74 | RRIRFRPPRLPRPRPRPLQMPRP | 0.236
75 | RRIRFRPPRLPRPRPRPLQRPRP | 0.071
